Experimental findings from patent US20200345898 are described below.

The target of the data set is T1, lysyl oxidase (LOX), recombinant human, in supernatant of doxycycline-induced HEK293 (Flp-In T-REx 293) cells.
T1 chain: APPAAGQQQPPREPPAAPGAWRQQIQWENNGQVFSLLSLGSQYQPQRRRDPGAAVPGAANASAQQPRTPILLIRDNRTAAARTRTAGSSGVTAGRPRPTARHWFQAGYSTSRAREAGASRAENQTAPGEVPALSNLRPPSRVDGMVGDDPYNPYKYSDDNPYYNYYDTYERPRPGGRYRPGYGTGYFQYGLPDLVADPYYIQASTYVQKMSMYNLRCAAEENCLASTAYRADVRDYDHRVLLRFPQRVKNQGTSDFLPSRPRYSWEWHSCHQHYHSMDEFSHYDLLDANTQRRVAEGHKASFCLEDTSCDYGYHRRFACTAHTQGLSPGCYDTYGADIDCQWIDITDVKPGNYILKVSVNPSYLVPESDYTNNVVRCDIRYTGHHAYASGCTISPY

B1: bone morphogenetic protein-1 (BMP1), recombinant human, in supernatant of doxycycline-induced HEK293 (Flp-In T-REx 293) cells (protein)
chain: AATSRPERVWPDGVIPFVIGGNFTGSQRAVFRQAMRHWEKHTCVTFLERTDEDSYIVFTYRPCGCCSYVGRRGGGPQAISIGKNCDKFGIVVHELGHVVGFWHEHTRPDRDRHVSIVRENIQPGQEYNFLKMEPQEVESLGETYDFDSIMHYARNTFSRGIFLDTIVPKYEVNGVKPPIGQRTRLSKGDIAQARKLYKCPACGETLQDSTGNFSSPEYPNGYSAHMHCVWRISVTPGEKIILNFTSLDLYRSRLCWYDYVEVRDGFWRKAPLRGRFCGSKLPEPIVSTDSRLWVEFRSSSNWVGKGFFAVYEAICGGDVKKDYGHIQSPNYPDDYRPSKVCIWRIQVSEGFHVGLTFQSFEIERHDSCAYDYLEVRDGHSESSTLIGRYCGYEKPDDIKSTSSRLWLKFVSDGSINKAGFAVNFFKEVDECSRPNRGGCEQRCLNTLGSYKCSCDPGYELAPDKRRCEAACGGFLTKLNGSITSPGWPKEYPPNKNCIWQLVAPTQYRISLQFDFFETEGNDVCKYDFVEVRSGLTADSKLHGKFCGSEKPEVITSQYNNMRVEFKSDNTVSKKGFKAHFFSEKRPALQPPRGRPHQLKFRVQKRNRTPQ
On to B1, for which the “LOX enzymatic activity, fluorometric assay” value was “the induction of the expression of LOX promoted a strong increase in LOX enzymatic activity, that was further augmented upon incubation with BMP1 supernatants in a time-dependent manner”; the “LOX immunoreactivity by western blotting in supernatants of fibroblast cultures, one day” value was “the combination of recombinant LOX and BMP1 resulted in complete proteolysis of the pro-LOX”.
